Test results as given in the supplement of paper PMC6379048.

Assays:
Experiment in all cases: Kd (EC50 corrected by depletion factor)
HNRNPU = HNRNPU (UniProt Q00839)
Outline: (§1)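 Over three biological replicates and two independent experiments, proteins captured on NHS-Sepharose beads carrying 5′-amino-C6 RNA oligos were quantified by label-free LC-MS/MS and normalised to the control. Capture lasted 30 min at 4°C and followed a 1 h pre-incubation at 4°C of HEK293-FT lysate (2.5 mg protein/well) with the same oligos in free form (0 nM to 30 μM). EC50 was taken from a four-parameter log-logistic fit, and Kd was EC50 corrected by a protein-dependent depletion factor.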

MRPL37 = MRPL37 (UniProt Q9BZE1)
Outline: as §1

HNRNPA1 = HNRNPA1 (UniProt P09651)
Outline: as §1

LSM8 = target: T1, LSM8 (UniProt O95777)
T1 sequence: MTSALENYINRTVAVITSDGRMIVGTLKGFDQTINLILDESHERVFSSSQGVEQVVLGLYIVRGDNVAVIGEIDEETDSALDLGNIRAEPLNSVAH
Outline: as §1

CWF19L1 = target: T2, CWF19L1 (UniProt Q69YN2)
T2 sequence: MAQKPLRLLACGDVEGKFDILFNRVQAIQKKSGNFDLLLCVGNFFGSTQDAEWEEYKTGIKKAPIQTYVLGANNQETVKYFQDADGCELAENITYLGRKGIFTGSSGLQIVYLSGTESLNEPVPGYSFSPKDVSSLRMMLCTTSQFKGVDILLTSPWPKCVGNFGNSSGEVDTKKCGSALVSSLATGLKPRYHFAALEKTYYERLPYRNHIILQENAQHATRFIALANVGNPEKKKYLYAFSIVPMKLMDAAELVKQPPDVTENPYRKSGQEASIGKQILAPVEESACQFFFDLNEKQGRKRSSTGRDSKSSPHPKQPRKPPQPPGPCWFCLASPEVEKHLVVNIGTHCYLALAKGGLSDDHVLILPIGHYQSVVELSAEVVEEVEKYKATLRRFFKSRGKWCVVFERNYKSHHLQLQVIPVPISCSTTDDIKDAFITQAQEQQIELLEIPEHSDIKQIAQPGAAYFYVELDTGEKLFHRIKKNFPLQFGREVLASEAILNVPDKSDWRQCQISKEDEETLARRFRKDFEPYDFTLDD
Outline: as §1

MEX3D = target: T3, MEX3D (UniProt Q86XN8)
T3 sequence: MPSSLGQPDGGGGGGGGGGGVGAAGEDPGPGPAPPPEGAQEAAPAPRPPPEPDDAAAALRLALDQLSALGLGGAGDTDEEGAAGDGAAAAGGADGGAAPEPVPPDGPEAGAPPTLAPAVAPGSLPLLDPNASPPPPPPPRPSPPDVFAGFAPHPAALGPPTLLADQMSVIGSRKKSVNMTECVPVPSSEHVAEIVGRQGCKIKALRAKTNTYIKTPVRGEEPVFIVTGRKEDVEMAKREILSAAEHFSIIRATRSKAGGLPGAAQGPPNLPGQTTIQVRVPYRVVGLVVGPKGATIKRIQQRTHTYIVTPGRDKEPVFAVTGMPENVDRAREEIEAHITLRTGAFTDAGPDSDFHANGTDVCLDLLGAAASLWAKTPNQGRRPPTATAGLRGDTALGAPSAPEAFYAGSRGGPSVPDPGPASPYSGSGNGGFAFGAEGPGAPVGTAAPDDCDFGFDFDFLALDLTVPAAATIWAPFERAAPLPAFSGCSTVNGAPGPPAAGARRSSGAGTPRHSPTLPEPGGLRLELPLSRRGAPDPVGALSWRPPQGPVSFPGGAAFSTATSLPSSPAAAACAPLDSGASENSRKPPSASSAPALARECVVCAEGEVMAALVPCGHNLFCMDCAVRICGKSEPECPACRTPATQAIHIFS
Outline: as §1

TTC37 = TTC37 (UniProt Q6PGP7)
Outline: as §1

HNRNPA1, sequence (P09651 whole entry): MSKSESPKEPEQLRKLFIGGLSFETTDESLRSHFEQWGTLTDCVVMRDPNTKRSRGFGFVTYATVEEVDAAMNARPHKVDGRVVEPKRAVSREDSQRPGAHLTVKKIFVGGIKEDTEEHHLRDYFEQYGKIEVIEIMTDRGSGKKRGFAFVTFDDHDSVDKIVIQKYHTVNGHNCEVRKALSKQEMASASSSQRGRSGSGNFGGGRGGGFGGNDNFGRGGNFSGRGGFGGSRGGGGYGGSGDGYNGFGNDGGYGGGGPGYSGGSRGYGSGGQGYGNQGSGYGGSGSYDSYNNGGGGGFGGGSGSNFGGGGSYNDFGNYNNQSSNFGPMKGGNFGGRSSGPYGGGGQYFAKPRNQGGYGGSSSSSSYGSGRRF
HNRNPU, sequence (Q00839 whole entry): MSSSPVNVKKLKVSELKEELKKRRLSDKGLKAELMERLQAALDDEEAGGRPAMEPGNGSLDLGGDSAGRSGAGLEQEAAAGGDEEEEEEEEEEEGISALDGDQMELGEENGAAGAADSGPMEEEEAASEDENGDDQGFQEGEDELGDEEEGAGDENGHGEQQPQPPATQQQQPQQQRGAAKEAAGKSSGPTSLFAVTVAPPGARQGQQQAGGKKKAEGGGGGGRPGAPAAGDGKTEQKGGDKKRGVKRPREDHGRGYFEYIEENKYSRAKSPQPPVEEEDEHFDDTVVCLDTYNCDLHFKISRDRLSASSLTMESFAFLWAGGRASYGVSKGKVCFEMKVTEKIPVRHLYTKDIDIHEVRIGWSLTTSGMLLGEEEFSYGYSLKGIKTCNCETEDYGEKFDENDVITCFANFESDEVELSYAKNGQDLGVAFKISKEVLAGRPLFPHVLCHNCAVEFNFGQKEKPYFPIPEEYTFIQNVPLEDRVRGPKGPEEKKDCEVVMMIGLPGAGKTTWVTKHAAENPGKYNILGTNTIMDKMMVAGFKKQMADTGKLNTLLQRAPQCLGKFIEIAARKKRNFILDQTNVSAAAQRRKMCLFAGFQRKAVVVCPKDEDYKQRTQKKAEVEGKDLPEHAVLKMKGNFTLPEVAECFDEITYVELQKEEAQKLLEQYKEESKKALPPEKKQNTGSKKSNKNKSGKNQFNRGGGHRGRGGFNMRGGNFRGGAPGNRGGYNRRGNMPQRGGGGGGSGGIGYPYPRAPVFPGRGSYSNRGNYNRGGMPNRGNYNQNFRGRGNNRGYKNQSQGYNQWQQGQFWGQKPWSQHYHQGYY
TTC37, sequence (Q6PGP7 whole entry): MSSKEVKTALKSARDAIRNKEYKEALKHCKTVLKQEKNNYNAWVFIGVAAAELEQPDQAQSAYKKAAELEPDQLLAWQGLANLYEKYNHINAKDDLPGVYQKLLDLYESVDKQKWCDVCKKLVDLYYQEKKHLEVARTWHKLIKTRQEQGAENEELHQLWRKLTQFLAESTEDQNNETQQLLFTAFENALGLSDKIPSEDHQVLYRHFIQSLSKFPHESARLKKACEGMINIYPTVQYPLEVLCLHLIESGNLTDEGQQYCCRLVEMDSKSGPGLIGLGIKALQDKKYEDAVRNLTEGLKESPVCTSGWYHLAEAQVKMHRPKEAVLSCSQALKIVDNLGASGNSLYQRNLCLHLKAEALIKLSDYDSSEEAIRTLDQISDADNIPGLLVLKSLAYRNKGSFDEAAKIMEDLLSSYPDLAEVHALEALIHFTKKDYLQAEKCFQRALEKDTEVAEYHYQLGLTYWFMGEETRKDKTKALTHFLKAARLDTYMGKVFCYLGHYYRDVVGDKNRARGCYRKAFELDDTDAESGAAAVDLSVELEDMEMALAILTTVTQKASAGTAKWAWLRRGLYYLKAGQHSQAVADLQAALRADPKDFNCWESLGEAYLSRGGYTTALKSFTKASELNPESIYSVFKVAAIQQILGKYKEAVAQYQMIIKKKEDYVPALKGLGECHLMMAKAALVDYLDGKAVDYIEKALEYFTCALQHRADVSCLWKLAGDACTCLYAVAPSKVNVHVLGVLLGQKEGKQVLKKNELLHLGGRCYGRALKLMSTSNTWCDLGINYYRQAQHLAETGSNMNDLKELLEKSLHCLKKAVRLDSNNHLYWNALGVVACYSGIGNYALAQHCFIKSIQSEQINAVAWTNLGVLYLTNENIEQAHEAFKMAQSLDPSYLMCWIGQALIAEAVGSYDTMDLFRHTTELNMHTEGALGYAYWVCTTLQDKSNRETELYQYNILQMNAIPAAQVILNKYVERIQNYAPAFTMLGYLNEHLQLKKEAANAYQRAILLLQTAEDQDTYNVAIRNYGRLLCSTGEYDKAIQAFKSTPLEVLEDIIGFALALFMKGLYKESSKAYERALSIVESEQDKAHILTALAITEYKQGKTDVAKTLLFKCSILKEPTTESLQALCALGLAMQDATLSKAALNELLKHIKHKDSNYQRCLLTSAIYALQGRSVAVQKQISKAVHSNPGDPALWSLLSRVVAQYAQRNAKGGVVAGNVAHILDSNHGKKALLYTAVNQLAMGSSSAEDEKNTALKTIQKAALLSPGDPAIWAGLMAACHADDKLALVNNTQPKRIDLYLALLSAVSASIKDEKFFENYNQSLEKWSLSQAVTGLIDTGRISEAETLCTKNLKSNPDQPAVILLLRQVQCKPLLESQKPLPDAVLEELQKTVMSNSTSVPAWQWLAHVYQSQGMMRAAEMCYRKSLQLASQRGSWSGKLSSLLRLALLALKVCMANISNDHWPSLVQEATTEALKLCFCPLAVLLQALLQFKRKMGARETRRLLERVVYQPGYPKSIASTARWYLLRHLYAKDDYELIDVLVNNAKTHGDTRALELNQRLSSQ

Row | Sequence | Kd (HNRNPU) [nM] | Kd (MRPL37) [nM] | Kd (HNRNPA1) [nM] | Kd (LSM8) [nM] | Kd (CWF19L1) [nM] | Kd (MEX3D) [nM] | Kd (TTC37) [nM]
1 | CUGUCCU | 90.1 | 76.1 | – | – | – | – | –
2 | UAUUUAU | – | – | 1960 | 2230 | 1960 | 465 | 577
